According to patent US20120308574A1 (HANWHA CHEMICAL, published 2012):

Columns and labels:
[1] = molecular target: T1, recombinant human VCAM-1 (Cat. No. 809-VR-200, R&D systems) (human, UniProt P19320 25-698, limits assumed); assay: cell-based or functional assay
T1 sequence (looked up): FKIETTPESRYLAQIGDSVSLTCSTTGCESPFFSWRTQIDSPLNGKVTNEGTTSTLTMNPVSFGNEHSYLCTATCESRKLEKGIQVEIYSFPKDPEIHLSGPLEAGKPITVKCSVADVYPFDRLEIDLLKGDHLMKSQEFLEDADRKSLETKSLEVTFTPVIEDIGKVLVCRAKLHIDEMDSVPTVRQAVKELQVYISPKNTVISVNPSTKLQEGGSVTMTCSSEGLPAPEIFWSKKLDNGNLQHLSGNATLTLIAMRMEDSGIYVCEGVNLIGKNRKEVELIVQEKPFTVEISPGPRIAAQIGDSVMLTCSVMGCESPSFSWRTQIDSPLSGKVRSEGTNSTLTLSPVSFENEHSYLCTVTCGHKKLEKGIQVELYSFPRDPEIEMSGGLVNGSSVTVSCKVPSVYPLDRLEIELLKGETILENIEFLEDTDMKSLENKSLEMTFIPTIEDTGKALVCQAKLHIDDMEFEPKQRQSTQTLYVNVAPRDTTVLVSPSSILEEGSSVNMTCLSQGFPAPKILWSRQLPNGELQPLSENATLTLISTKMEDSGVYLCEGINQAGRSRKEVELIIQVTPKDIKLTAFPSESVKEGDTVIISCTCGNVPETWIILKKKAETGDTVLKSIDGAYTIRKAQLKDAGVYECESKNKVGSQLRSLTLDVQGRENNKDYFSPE

[2] = molecular target: T2, recombinant human VCAM-1 domain 1~7/Fc chimera (R&D, 862-VC) (human, UniProt P19320 25-698); assay: SPR (BIACORE), VCAM-1/Fc immobilised on CM5 chip, antibody as analyte, 1:1 binding model
T2 construct: domain: domain 1~7; Bought product; also called VD7; hVCAM-Fc-chimera; Fc part of the bought chimera not given
T2 sequence (looked up): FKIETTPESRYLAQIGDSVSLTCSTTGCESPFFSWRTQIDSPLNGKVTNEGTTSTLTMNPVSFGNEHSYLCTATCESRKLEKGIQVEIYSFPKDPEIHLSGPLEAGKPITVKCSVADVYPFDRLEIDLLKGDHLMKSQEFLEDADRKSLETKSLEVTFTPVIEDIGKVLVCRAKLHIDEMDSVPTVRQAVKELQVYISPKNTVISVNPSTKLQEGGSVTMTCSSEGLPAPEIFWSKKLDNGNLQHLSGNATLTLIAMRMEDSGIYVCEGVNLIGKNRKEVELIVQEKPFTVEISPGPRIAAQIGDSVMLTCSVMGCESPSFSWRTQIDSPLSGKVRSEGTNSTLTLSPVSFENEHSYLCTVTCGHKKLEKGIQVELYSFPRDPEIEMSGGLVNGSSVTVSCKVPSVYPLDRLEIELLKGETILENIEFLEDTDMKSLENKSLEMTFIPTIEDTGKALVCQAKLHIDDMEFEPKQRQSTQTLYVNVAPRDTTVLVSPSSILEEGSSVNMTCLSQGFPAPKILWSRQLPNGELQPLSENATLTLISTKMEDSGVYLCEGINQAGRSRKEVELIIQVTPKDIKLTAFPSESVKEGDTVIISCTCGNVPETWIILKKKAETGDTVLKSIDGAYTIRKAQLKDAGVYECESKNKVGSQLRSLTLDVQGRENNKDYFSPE
Procedure: (§1) 1 mg/Ml of ligand to be immobilized was diluted in 97 μl of each sodium acetate solution (varying within the pH range from 4.0 to 5.5) at a dilution ratio of 3/100, and then applied at a flow rate of 10 μl/min for about 3 min (as a negative control, the ligand was diluted using a running buffer, HBS-EP buffer (BIACORE AB, Sweden) in the same manner). In order to immobilize the ligand at a predetermined value target RU (resonance unit), serial injection was carried out automatically, until reaching target RU. The ligand-immobilized chip was inactivated by injection of 1M ethanolamine (Amine Coupling Kit, BR-1000-50) at a flow rate of 10 μl/min for about 3 min. The final RU was determined by an immobilization report which provides a difference in RU values before and after injection of ethanolamine.
(§2) A flow cell2-flow cell mode provided by BIACORE instrument was employed in this experiment in order to remove non-specific binding. At this time, a recombinant VCAM1/Fc antigen was immobilized as a ligand to the flow cell2, and BSA (Bovine Serum Albumin) was immobilized to the flow cell. Then, each of the anti VCAM-1 antibodies 4B, 7C and 7H as the analyte were applied to flow cell 1 and 2, simultaneously. The sensogram RU of flow cell was automatically subtracted from the sensogram RU of flow cell2. Subsequently, the analytes were applied at a flow rate of 30 μl/min for about 3 min, and then dissociation was induced for 120 sec. Through this procedure, an association/dissociation curve of the corresponding antigen and antibody was obtained, and an association/dissociation constant KD was calculated by BIAevaluation program (BIACORE AB, Sweden), as shown in the following Table 2.
(§3) The above Table 2 represents the binding capacity or affinity of human and mouse VCAM-1 antigen-specific anti VCAM-1 human monoclonal antibodies to antigen, and a protein affinity analyzer, BIACORE (BIACORE AB, Sweden) was used to analyze a species specific antigen-antibody affinity to the biologically different species, human and mouse antigens. The affinity constant KD value of corresponding antigen-antibody was calculated in a 1:1 binding mode.

[3] = molecular target: T3, mVCAM-1-Fc chimera (R&D systems, Cat# 643-VM) (mouse, UniProt P29533 25-698); assay: as above
T3 construct: Bought product; also called Mouse VCAM-1 antigen; mouse antigen; Fc part of the bought chimera not given
T3 sequence (looked up): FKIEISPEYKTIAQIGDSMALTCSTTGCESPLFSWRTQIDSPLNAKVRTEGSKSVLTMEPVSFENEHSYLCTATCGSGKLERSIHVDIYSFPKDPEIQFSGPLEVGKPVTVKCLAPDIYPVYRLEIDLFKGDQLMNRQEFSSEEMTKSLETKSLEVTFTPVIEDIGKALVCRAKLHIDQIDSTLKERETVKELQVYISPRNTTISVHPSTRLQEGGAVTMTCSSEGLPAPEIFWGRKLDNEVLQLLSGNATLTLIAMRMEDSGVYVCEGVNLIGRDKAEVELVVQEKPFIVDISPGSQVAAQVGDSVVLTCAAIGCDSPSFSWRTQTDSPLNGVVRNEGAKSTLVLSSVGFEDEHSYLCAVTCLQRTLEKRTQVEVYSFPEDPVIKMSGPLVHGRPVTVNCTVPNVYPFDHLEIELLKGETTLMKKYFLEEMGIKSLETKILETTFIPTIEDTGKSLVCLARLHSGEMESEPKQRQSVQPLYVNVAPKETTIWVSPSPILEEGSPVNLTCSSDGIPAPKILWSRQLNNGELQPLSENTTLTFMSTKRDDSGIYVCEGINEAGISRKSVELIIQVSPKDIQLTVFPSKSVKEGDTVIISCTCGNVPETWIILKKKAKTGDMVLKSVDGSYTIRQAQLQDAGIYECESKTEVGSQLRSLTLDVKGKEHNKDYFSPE
Procedure: as §1, §2, §3

[4] = molecular target: T2, recombinant human VCAM-1 domain 1~7/Fc …; assay: SPR (BIACORE), VCAM-1/Fc immobilised, antibody as analyte
Procedure: as §1, with “For ligand immobilization to the sensor chip CM5, the chip should be first activated with a mixture of N-hydroxysuccinimide (NHS) and […] (EDC) (Amine Coupling Kit, BR-1000-50) to prepare a NHS-ester-activated chip surface being highly reactive to an amino group. 1 mg/Ml” for “1 mg/Ml”, “target RU. […] The final” for “target RU. The ligand-immobilized chip was inactivated by injection of 1M ethanolamine (Amine Coupling Kit, BR-1000-50) at a flow rate of 10 μl/min for about 3 min. The final”
(§4) A flow cell2-flow cell mode provided by BIACORE instrument was employed in this experiment in order to remove non-specific binding. […] Through this procedure, an association/dissociation curve of the corresponding antigen and antibody was obtained, and an association/dissociation constant KD was calculated by BIAevaluation program (BIACORE AB, Sweden), as shown in the following Table 2.

[5] = molecular target: T3, mVCAM-1-Fc chimera (R&D systems, Cat# …); assay: SPR (BIACORE), VCAM-1/Fc immobilised on CM5 chip, antibody as analyte
Procedure: as §1, with “For ligand immobilization to the sensor chip CM5, the chip should be first activated with a mixture of N-hydroxysuccinimide (NHS) and […] (EDC) (Amine Coupling Kit, BR-1000-50) to prepare a NHS-ester-activated chip surface being highly reactive to an amino group. 1 mg/Ml” for “1 mg/Ml”, “target RU. […] The final” for “target RU. The ligand-immobilized chip was inactivated by injection of 1M ethanolamine (Amine Coupling Kit, BR-1000-50) at a flow rate of 10 μl/min for about 3 min. The final”
as §4

B1: anti VCAM-1 human monoclonal antibody 7C (antibody, V domains shown)
VH: QVQLVESGGGVVQPGGSLRLSCAASGFTFDDYAMHWVRQAPGKGLEWVSLISGDGTDTYYADSVKGRFTISRDNSKNSLYLQMNSLRAEDTAVYYCAKRGYSYLGALDGWGQGTKITVSS
VL: QLVLTQSPSVSVAPGQTARITCGGDNIGRESVHWYQQKAGQAPVLVIYYDSDRPSGIPERFSGSNSGNTATLTISWVDAGDEADYYCQVWDSSSDHVVFGGGTKLTVL
B1 was tested, and the “inhibition of adhesion of fluorescence-labelled U937 leukocytes to coated human VCAM-1 (reduction in fluorescence intensity)” value [1] was 90%, the Kd [2] was 38.8 nM and the Kd [3] was 36.9 nM.

B2: anti VCAM-1 human monoclonal antibody 7H (antibody, V domains shown)
VH: QMQLVQSGGDLVKPGESLRLSCAASGFTFNDAWMTWVRQPPGKGLEWVGRIKSTTDGGTTNYAAPVEGRFTISRDDSKNTLYLEMNSLRAEDTAVYYCARIPLFNHDSGGYHGAFDIWGQGTMVTVSS
VL: DIQMTQSPSSLAVSLGERATINCKSSQSVLYSSNNKNYLAWYQQKPGQPPKLLIYWASTRESGVPDRFSGSGSGTDFTLTISSLQPEDFASYYCQESYSAPYTFGQGTKVEIKR
In the case of B2, the “inhibition of adhesion of fluorescence-labelled U937 leukocytes to coated human VCAM-1 (reduction in fluorescence intensity)” value [1] is reported as 90%, the Kd [2] is reported as 5.44 nM and the Kd [3] is reported as 10.7 nM.

B3: anti VCAM-1 human monoclonal antibody 4B (antibody, V domains shown)
VH: QMQLVESGGGLVQPGGSLRLSCAASGFTFSSYGVSWVRQAPGKGLEWVSRISGSGGSTYYADSVKGRFTISRDNSKSTLYLQMNSLRAEDTAVYYCARPIFYGGNSAFDSWGQGTLVTVSS
VL: QLVLTQPPSVSAAPGQKVTISCSGSSSNIGNNFVSWYQHLPGTAPKLLIYDNNKRPSGIPDRFSGSKSGTSATLGIAGLQTGDDADYYCGTWDSSLSAYVFGTGAKVTVL
notes: Tested as full IgG converted from an scFv phage clone and expressed in CHO-S (about 55 kDa heavy chain, about 25 kDa light chain)
For B3, the “inhibition of adhesion of fluorescence-labelled U937 leukocytes to coated human VCAM-1 (reduction in fluorescence intensity)” value [1] was 80%, the Kd [4] was about 1 nM and the binding result [5] was “no binding”. It also gave a Kd [2] of 0.5 nM.
